Data: WO2024019110A1 (dated 2024)

Experiments:
Assay in all cases: BLI (Octet), biotinylated RBD on streptavidin biosensor, Fab in solution
[1] = target: Omicron strain (BA.2) RBD, biotinylated (SARS-CoV-2 (Omicron strain BA.2), UniProt P0DTC2 331-529)
[2] = target: Delta strain RBD, biotinylated (SARS-CoV-2 (Delta strain), UniProt P0DTC2 331-529)
[3] = target: Omicron strain (BA.1) RBD, biotinylated (SARS-CoV-2 (Omicron strain BA.1), UniProt P0DTC2 331-529)

Measured: Kd

B1: recombinant Fab protein of antibody No. 7 (Fab, V domains shown)
VH: EVQLLESGGGLVQPGGSLRLSCAASGFTFSRYALSWVRQAPGKGLEWVSAISGAAITTYYADSVKGRFTISRDDSRNTLFMQMDSLRAEDTAVYYCAKGDYYDSSGYLAEYFPHWGQGTLVTVSS
VL: SYELTQPPSVSVSPGQTARITCFADALPKQHAYWYQQKAGQAPVLVIFKDTERPSGIPKRFSGSRSGATVTLTISGVQAEDEADYYCQSTDISGVLFGGGTKLTVL
≤ 100 nM: all assays above

B2: recombinant Fab protein of antibody No. 5 (Fab, V domains shown)
VH: EVQLVESGGGLVQPGGSLRLSCAASGFTFYSYWMTWVRQAPGKGLEWVANIKHDESESHYVDSVRGRFTISRDNAKNSVYLQMKGLRAEDTAVYYCARDGGYNILTAYYHAPSYWGQGTLVTVSS
VL: QSALTQPASVSGSPGQSITISCTGTSSDVGGYNFVSWYRQYPGKAPQLMIYDVSRRPSGDSDRFSGSKSGNTASLTISGLQAEDEAEYHCSSYTGRSPYVVFGGGTKVTVL
≤ 100 nM: all assays above

B3: recombinant Fab protein of antibody No. 2 (Fab, V domains shown)
VH: EVQLVESGGGVVQPGRSLRLSCAASGFKFSKFAMHWVRQAPGKGPEWVAVISYDGNQYHSADSVKGRFTISRDNSFNTLYLQMNSLGPEDTAVYYCARDGPDTSGYYANIYFDFWGQGTLVTVSS
VL: QSVLTQPPSVSGAPGQRVTISCTGSSSNIGAGYDVHWYQQLPGRAPKLLIFDNNNRPSGVPDRFSGSKSGTSASLAITGLQTEDEAYYYCQSYDNSLILAVFGGGTKVTVL
≤ 100 nM: all assays above

B4: recombinant Fab protein of antibody No. 6 (Fab, V domains shown)
VH: QVQLVQSGPEVKKPGTSVKVSCKASGFTFYYSAVQWVRQARGQRLEWLGWMAVGSGKANYAQKFQERLTLTRDMSTSTAYMELSSLRSEDTAVYYCAAPNCTGGSCYDGFNLWGQGTVVTVSS
VL: EIVLTQSPGTLSLSPGDRAILSCRASQTVNSNYLAWYQQKPGQAPRLLIYGTSSRATGIPDRFSGSGSGTDFTLTISRLEPEDFAVYYCQQYGSSPWLFGQGTKVEIK
≤ 100 nM: all assays above
